In the Human Domainome abundance scans (Beltran et al. 2025):
± gives the uncertainty stated by the source.

B1: GAS2-like protein 1, residues 209 to 276; numbered along this chain, Q99501 (parent)
chain: DELVREILGRCTCPDQFPMIKVSEGKYRVGDSSLLIFVRVLRSHVMVRVGGGWDTLEHYLDKHDPCRC

Variants of: B1
Test: abundance fitness (aPCA) (normalised: wild type 0, dead -1); higher = more abundant; growth selection in yeast, the domain comes from the species named
Settings: Homo sapiens

Variant | abundance fitness
DELVREDLGRCTCPDQFPMIKVSEGKYRVGDSSLLIFVRVLRSHVMVRVGGGWDTLEHYLDKHDPCRC [I7D] | -0.704 ± 0.36
DELVREHLGRCTCPDQFPMIKVSEGKYRVGDSSLLIFVRVLRSHVMVRVGGGWDTLEHYLDKHDPCRC [I7H] | -0.473 ± 0.076
DELVREGLGRCTCPDQFPMIKVSEGKYRVGDSSLLIFVRVLRSHVMVRVGGGWDTLEHYLDKHDPCRC [I7G] | -0.763 ± 0.082
DELVREELGRCTCPDQFPMIKVSEGKYRVGDSSLLIFVRVLRSHVMVRVGGGWDTLEHYLDKHDPCRC [I7E] | -0.128 ± 0.056
DELVREKLGRCTCPDQFPMIKVSEGKYRVGDSSLLIFVRVLRSHVMVRVGGGWDTLEHYLDKHDPCRC [I7K] | -0.367 ± 0.12
DELVRECLGRCTCPDQFPMIKVSEGKYRVGDSSLLIFVRVLRSHVMVRVGGGWDTLEHYLDKHDPCRC [I7C] | -0.365 ± 0.069
DVLVREILGRCTCPDQFPMIKVSEGKYRVGDSSLLIFVRVLRSHVMVRVGGGWDTLEHYLDKHDPCRC [E2V] | -0.434 ± 0.075
DYLVREILGRCTCPDQFPMIKVSEGKYRVGDSSLLIFVRVLRSHVMVRVGGGWDTLEHYLDKHDPCRC [E2Y] | -0.057 ± 0.065
DTLVREILGRCTCPDQFPMIKVSEGKYRVGDSSLLIFVRVLRSHVMVRVGGGWDTLEHYLDKHDPCRC [E2T] | 0.012 ± 0.1
DEFVREILGRCTCPDQFPMIKVSEGKYRVGDSSLLIFVRVLRSHVMVRVGGGWDTLEHYLDKHDPCRC [L3F] | -0.221 ± 0.14
DEHVREILGRCTCPDQFPMIKVSEGKYRVGDSSLLIFVRVLRSHVMVRVGGGWDTLEHYLDKHDPCRC [L3H] | -0.34 ± 0.081
DEWVREILGRCTCPDQFPMIKVSEGKYRVGDSSLLIFVRVLRSHVMVRVGGGWDTLEHYLDKHDPCRC [L3W] | -0.643 ± 0.11
DEQVREILGRCTCPDQFPMIKVSEGKYRVGDSSLLIFVRVLRSHVMVRVGGGWDTLEHYLDKHDPCRC [L3Q] | -0.025 ± 0.053
DESVREILGRCTCPDQFPMIKVSEGKYRVGDSSLLIFVRVLRSHVMVRVGGGWDTLEHYLDKHDPCRC [L3S] | -0.459 ± 0.069
DEVVREILGRCTCPDQFPMIKVSEGKYRVGDSSLLIFVRVLRSHVMVRVGGGWDTLEHYLDKHDPCRC [L3V] | -0.324 ± 0.057
DEIVREILGRCTCPDQFPMIKVSEGKYRVGDSSLLIFVRVLRSHVMVRVGGGWDTLEHYLDKHDPCRC [L3I] | -0.129 ± 0.072
DEMVREILGRCTCPDQFPMIKVSEGKYRVGDSSLLIFVRVLRSHVMVRVGGGWDTLEHYLDKHDPCRC [L3M] | -0.034 ± 0.063
DEYVREILGRCTCPDQFPMIKVSEGKYRVGDSSLLIFVRVLRSHVMVRVGGGWDTLEHYLDKHDPCRC [L3Y] | -0.268 ± 0.063
DEKVREILGRCTCPDQFPMIKVSEGKYRVGDSSLLIFVRVLRSHVMVRVGGGWDTLEHYLDKHDPCRC [L3K] | -0.06 ± 0.044
DEPVREILGRCTCPDQFPMIKVSEGKYRVGDSSLLIFVRVLRSHVMVRVGGGWDTLEHYLDKHDPCRC [L3P] | -0.711 ± 0.11

Variant | abundance fitness
DETVREILGRCTCPDQFPMIKVSEGKYRVGDSSLLIFVRVLRSHVMVRVGGGWDTLEHYLDKHDPCRC [L3T] | -0.526 ± 0.11
DEDVREILGRCTCPDQFPMIKVSEGKYRVGDSSLLIFVRVLRSHVMVRVGGGWDTLEHYLDKHDPCRC [L3D] | -0.559 ± 0.15
DECVREILGRCTCPDQFPMIKVSEGKYRVGDSSLLIFVRVLRSHVMVRVGGGWDTLEHYLDKHDPCRC [L3C] | -0.117 ± 0.076
DENVREILGRCTCPDQFPMIKVSEGKYRVGDSSLLIFVRVLRSHVMVRVGGGWDTLEHYLDKHDPCRC [L3N] | -0.675 ± 0.15
DEEVREILGRCTCPDQFPMIKVSEGKYRVGDSSLLIFVRVLRSHVMVRVGGGWDTLEHYLDKHDPCRC [L3E] | -0.627 ± 0.12
DERVREILGRCTCPDQFPMIKVSEGKYRVGDSSLLIFVRVLRSHVMVRVGGGWDTLEHYLDKHDPCRC [L3R] | 0.01 ± 0.046
DELVSEILGRCTCPDQFPMIKVSEGKYRVGDSSLLIFVRVLRSHVMVRVGGGWDTLEHYLDKHDPCRC [R5S] | 0.093 ± 0.053
DELVEEILGRCTCPDQFPMIKVSEGKYRVGDSSLLIFVRVLRSHVMVRVGGGWDTLEHYLDKHDPCRC [R5E] | 0.056 ± 0.06
DELVNEILGRCTCPDQFPMIKVSEGKYRVGDSSLLIFVRVLRSHVMVRVGGGWDTLEHYLDKHDPCRC [R5N] | 0.194 ± 0.08
DELVKEILGRCTCPDQFPMIKVSEGKYRVGDSSLLIFVRVLRSHVMVRVGGGWDTLEHYLDKHDPCRC [R5K] | 0.091 ± 0.055
DELVGEILGRCTCPDQFPMIKVSEGKYRVGDSSLLIFVRVLRSHVMVRVGGGWDTLEHYLDKHDPCRC [R5G] | -0.158 ± 0.053
DELVPEILGRCTCPDQFPMIKVSEGKYRVGDSSLLIFVRVLRSHVMVRVGGGWDTLEHYLDKHDPCRC [R5P] | -0.947 ± 0.21
DELVVEILGRCTCPDQFPMIKVSEGKYRVGDSSLLIFVRVLRSHVMVRVGGGWDTLEHYLDKHDPCRC [R5V] | -0.584 ± 0.12
DELVYEILGRCTCPDQFPMIKVSEGKYRVGDSSLLIFVRVLRSHVMVRVGGGWDTLEHYLDKHDPCRC [R5Y] | -0.185 ± 0.099
DELVAEILGRCTCPDQFPMIKVSEGKYRVGDSSLLIFVRVLRSHVMVRVGGGWDTLEHYLDKHDPCRC [R5A] | 0.056 ± 0.052
DELVDEILGRCTCPDQFPMIKVSEGKYRVGDSSLLIFVRVLRSHVMVRVGGGWDTLEHYLDKHDPCRC [R5D] | -0.161 ± 0.23
DELVIEILGRCTCPDQFPMIKVSEGKYRVGDSSLLIFVRVLRSHVMVRVGGGWDTLEHYLDKHDPCRC [R5I] | -0.465 ± 0.094
DELVLEILGRCTCPDQFPMIKVSEGKYRVGDSSLLIFVRVLRSHVMVRVGGGWDTLEHYLDKHDPCRC [R5L] | -0.178 ± 0.035
DELVCEILGRCTCPDQFPMIKVSEGKYRVGDSSLLIFVRVLRSHVMVRVGGGWDTLEHYLDKHDPCRC [R5C] | -0.316 ± 0.41
